Test [1] concerns the target EGFR on the cell surface of human tumor cell lines (human) (UniProt P00533). Nature of the test: cell-based or functional assay.
The target of test [2] is MET on the cell surface of human tumor cell lines (human) (UniProt P08581). Nature of the test: cell-based or functional assay.
Sequence of MET on the cell surface of human tumor cell lines (human) (P08581 25-1390): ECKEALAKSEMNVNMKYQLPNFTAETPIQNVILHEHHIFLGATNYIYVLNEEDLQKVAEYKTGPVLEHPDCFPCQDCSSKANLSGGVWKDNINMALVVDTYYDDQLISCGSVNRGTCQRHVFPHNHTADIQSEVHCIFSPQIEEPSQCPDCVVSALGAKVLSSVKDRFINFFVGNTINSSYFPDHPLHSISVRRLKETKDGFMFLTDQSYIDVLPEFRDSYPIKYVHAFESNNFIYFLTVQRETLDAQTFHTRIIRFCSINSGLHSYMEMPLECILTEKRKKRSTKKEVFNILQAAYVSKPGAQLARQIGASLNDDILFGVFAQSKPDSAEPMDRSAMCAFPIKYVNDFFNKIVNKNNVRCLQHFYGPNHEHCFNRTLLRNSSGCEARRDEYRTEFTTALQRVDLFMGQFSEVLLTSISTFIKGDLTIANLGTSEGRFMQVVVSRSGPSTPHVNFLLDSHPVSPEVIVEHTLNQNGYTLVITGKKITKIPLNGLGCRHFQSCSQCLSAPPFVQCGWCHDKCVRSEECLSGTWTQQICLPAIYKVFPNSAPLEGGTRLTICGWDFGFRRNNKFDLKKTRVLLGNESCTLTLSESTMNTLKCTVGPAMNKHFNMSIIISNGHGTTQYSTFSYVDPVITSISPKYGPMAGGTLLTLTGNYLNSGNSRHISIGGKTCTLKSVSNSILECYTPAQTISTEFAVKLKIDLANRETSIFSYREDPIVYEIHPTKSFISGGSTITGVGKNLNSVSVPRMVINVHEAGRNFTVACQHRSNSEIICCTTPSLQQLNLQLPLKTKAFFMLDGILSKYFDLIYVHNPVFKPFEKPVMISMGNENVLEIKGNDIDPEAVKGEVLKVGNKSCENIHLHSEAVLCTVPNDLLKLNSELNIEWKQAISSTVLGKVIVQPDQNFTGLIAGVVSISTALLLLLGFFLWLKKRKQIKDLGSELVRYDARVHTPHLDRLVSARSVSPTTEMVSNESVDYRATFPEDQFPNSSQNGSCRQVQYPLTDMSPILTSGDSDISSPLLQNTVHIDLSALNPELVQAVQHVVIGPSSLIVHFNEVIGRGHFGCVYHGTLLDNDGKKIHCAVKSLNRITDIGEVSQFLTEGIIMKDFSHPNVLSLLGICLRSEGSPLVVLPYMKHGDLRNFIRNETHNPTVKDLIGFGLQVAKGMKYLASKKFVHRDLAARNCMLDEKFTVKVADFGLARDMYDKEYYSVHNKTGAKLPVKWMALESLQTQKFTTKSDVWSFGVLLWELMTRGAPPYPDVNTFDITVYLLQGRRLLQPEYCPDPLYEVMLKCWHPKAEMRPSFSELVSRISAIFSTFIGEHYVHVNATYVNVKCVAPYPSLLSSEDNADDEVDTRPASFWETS

In the case of hIgG4 (antibody), in test [1], the % cell surface EGFR remaining, H441 cells, antibody 50 nM; isotype control, reference for the % was found to be 100% and the AVG of MFI (staining of cell surface EGFR), H441 cells, antibody 50 nM; isotype control, reference for the % came to 56.3 MFI. Further, in test [2], the % cell surface MET remaining, H441 cells, antibody 50 nM; isotype control, reference for the % amounted to 100% and the AVG of MFI (staining of cell surface MET), H441 cells, antibody 50 nM; isotype control, reference for the % is 77.4 MFI.

(Values after patent US20150175708A1.)
